Measured values reported in US20200199225A1 (AVA LIFESCIENCE, published 2020).

Target: T1, CLL subset 2 typical BCR (HC/LC typical for the CLL subset 2) expressed on the surface of TKO cells
T1 construct: also called CLL-Subset2 BCR; BCR of Interest
Test: FACS on TKO cells expressing the CLL receptor
Text: Monoclonal antibodies were produced using the standard procedure in mice and the subsequent generation of hybridoma cells. The screening for positive clones was not performed by ELISA as usual. Since the target structure is a membrane-bound receptor, it is of central importance to validate the binding of the potential antibodies in a cellular system, i.e. while largely preserving the cell physiological states native to this cell type. First, groups of pooled supernatants were examined for binding events using FACS analysis. For this purpose different CLL-Subset 2 BCR variants were expressed on the surface of a cell line (TKO), which cannot express BCR itself. […] Subsequently, the supernatants of the individual hybridoma clones were examined in more detail with regard to their binding in order to identify highly specific clones with a high affinity.
For the screening procedure, different vectors were used in the previous transformation for the following heavy chain (HC) and light chain (LC) combinations of the corresponding CLL-BCRs, these combinations being used on the surface of the BCR reconstitution system: [0074] Control (transformation vector without BCR) (see FIG. 1 A) [0075] Vector with HC/LC typical for the CLL subset 2 (see FIG. 1 B) [0076] Vector with a non-CLL subset 2 HC/a LC typical for the CLL subset 2 (without target motif; epitope) (see FIG. 1 C) [0077] […]

T1 sequence (heavy, as listed by the source, chain 1 of 2): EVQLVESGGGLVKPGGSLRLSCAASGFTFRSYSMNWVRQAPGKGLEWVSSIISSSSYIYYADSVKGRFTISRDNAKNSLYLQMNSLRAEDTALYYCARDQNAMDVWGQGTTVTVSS
T1 sequence (light, as listed by the source, chain 2 of 2): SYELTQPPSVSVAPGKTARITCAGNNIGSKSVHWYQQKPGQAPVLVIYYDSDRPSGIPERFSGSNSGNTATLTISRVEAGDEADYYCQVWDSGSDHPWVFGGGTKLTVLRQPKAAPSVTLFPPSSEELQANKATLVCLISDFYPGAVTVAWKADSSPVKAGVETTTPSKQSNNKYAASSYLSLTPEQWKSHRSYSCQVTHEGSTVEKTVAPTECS

B1: AVA-mAb01 (antibody, V domains shown)
VH: QVQLQQSGPGLVQPSQSLSITCTVSGFSLTSYGIHWVRQSPGKGLEWLGVIWRGGGTDSNAAFMSRLSITKDNSKSQVFFKMNSLQADDTAIYYCARSRYDEEESMNYWGQGTSVTVSS
VL: QIVLTQSPASLSASVGETVTITCRASGNIHSYLAWYQQKQGKSPQLLVYNAKTLADGVPSRFSGSGSGTQYSLKINSLQPEDFGSYYCQHFWNTPPTFGAGTKLELK
notes: Murine monoclonal antibody from a hybridoma, tested as hybridoma supernatant and detected with a fluorescence-labeled anti-mouse-IgG antibody; the constant regions are not; also called specific monoclonal antibody against Subset-2; the selected antibody
B1: binds.
